Measurements from US20220396819A1, “METHOD FOR PRODUCING PEPTIDE HAVING PHYSIOLOGICAL ACTIVITY, AND PEPTIDE COMPRISING SHORT LINKER” (priority 2019, published 2022).
Where two headings read alike, the source gives them in different places. Positions of bridges follow the written chain, without caps; N, C: chain ends. No end group written: not given here.

What was measured:
[1] = biological target: T1, thrombopoietin receptor c-Mpl (human, UniProt P40238 26-635); experiment: cell-based or functional assay
T1 sequence (looked up): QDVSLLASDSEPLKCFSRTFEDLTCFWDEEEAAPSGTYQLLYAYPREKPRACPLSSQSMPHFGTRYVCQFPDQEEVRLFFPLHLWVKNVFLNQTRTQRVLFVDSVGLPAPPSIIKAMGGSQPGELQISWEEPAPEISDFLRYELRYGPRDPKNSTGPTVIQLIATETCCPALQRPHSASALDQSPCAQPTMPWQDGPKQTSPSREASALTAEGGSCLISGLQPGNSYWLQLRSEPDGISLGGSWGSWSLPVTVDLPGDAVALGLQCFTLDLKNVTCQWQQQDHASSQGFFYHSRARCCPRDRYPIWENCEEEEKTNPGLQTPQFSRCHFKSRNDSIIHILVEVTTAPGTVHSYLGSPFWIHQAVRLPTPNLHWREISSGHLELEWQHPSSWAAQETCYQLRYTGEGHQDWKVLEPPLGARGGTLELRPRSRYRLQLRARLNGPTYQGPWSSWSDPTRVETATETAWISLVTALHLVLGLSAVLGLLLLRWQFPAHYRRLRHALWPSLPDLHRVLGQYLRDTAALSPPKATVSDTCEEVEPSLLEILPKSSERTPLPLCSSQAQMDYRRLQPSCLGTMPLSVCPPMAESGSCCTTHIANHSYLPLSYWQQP

[2] = biological target: T2, VEGFR (Homo sapiens, UniProt P35968); experiment: VEGF inhibitory ability, luciferase assay in VEGFR/NFAT Reporter HEK293 cells; format: cell-based
T2 construct: host or cells: VEGFR/NFAT Reporter HEK293 cells
T2 sequence (P35968 20-1356): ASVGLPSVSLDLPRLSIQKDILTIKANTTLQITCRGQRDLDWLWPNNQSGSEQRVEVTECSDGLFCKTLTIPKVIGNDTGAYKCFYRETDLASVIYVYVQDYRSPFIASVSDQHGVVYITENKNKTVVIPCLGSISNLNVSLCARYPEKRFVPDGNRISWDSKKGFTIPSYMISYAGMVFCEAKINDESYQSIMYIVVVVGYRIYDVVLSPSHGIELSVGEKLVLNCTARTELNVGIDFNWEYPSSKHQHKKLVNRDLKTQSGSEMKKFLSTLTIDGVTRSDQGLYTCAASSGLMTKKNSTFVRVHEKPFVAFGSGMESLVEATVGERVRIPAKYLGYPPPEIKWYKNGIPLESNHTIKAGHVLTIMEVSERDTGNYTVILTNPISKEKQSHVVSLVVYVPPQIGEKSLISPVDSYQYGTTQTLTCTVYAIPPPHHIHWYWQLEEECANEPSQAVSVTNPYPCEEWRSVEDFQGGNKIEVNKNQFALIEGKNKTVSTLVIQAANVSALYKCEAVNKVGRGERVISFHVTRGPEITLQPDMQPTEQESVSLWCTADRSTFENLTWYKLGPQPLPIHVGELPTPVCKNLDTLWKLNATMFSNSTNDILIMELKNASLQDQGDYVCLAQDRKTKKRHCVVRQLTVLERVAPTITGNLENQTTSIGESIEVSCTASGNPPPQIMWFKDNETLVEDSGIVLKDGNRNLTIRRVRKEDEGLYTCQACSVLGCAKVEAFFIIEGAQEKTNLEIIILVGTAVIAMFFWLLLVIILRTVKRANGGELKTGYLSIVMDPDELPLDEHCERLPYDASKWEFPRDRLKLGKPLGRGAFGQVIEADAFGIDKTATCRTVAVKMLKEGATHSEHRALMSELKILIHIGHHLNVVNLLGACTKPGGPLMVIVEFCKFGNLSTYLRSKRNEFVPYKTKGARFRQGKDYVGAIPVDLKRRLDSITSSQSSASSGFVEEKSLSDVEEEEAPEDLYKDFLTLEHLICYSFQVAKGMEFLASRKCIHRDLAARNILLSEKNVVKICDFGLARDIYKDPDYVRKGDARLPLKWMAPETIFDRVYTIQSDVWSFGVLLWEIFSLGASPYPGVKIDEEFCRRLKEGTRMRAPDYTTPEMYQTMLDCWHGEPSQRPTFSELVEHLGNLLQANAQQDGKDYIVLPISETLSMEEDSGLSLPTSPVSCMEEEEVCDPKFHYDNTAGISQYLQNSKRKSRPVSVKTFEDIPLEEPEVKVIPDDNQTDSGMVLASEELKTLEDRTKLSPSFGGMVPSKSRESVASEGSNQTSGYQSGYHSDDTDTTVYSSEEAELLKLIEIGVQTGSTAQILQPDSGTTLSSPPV
Description: The VEGF inhibitory ability of the VEGFR_D2-PAS heterodimer peptide was evaluated by luciferase assay. 40,000 cell/well VEGFR/NFAT Reporter HEK293 cells (BPS Bioscience) were seeded and incubated overnight in a 5% CO2 incubator at 37° C. The cells were incubated overnight in Assay medium (MEM medium (Nacalai Tesque), 1×MEM Non-Essential Amino Acids Solution (Thermo Fisher Scientific), 1 mM Sodium Pyruvate (Nacalai Tesque), 1% Penicillin-Streptomycin (Sigma Aldrich), and 0.3% FBS (Thermo Fisher Scientific)) to starvation. […] The cells were stimulated by culturing in a 5% CO2 incubator at 37° C. for 4 hours.
One-Glo Luciferase Assay System (Promega) was used to detect the signal intensity. Medium supernatant in an amount of 50 μL was removed, 50 μL of One-Glo reagent was added, and the cells were lysed for 10 minutes at room temperature. The luminescence emitted from the cell lysate solution was detected with a Nivo plate reader (Perkin Elmer) to quantify the activation of the VEGFR-NFAT pathway, and the relative signal activity value for the sample without addition of evaluation compound was determined and used as relative receptor activity.
The VEGF inhibitory ability of the cell-free expressed VEGFR_D2-PAS heterodimer peptide was evaluated by luciferase assay. 40,000 cell/well VEGFR/NFAT Reporter HEK293 cells (BPS Bioscience) were seeded and incubated overnight in a 5% CO2 incubator at 37° C. The cells were incubated overnight in Assay medium (MEM medium (Nacalai Tesque), 1×MEM Non-Essential Amino Acids Solution (Thermo Fisher Scientific), 1 mM Sodium Pyruvate (Nacalai Tesque), 1% Penicillin-Streptomycin (Sigma Aldrich), and 0.3% FBS (Thermo Fisher Scientific)) to starvation. To the Assay medium, 100 μL of 10 ng/mL human recombinant VEGF (R&D Systems) was added, and further, MAET-VEGFR_D2-PAS16, MAET-VEGFR_D2-PAS49-b, MAET-VEGFR_D2-PAS100-b, or a cell-free expression solution containing MAET-VEGFR_D2-GS16, or a cell-free expression solution with unexpressed peptide was added at a predetermined dilution factor, and 100 μL of the Assay medium was added to the cells. The cells were stimulated by culturing in a 5% CO2 incubator at 37° C. for 4 hours.
The VEGF inhibitory ability of the VEGFR_D2-PAS heterodimer peptide linker variant was evaluated by luciferase assay. 40,000 cell/well VEGFR/NFAT Reporter HEK293 cells (BPS Bioscience) were seeded and incubated overnight in a 5% CO2 incubator at 37° C. The cells were incubated overnight in Assay medium (MEM medium (Nacalai Tesque), 1×MEM Non-Essential Amino Acids Solution (Thermo Fisher Scientific), 1 mM Sodium Pyruvate (Nacalai Tesque), 1% Penicillin-Streptomycin (Sigma Aldrich), and 0.3% FBS (Thermo Fisher Scientific)) to starvation. To the Assay medium, 10 ng/mL human recombinant VEGF (R&D Systems) was added, and further, a culture supernatant containing VEGFR_D2-PAS16, VEGFR_D2-PAS49, or VEGFR_D2-PAS100 at a predetermined concentration was added, and 100 μL of the Assay medium was added to the cells. The cells were stimulated by culturing in a 5% CO2 incubator at 37° C. for 4 hours. Note that VEGFR_D2-PAS16 was obtained according to the method described in Example 27.

[3] = biological target: VEGFR (UniProt P35968 20-1356, limits assumed); experiment: cell-based or functional assay
Sequence of VEGFR (UniProt P35968 20-1356, limits assumed) (P35968 20-1356 limits assumed): as the sequence (P35968 20-1356) above

[4] = biological target: T3, EpoR (UniProt P19235 25-508, limits assumed); experiment: cell-based or functional assay
T3 sequence (looked up): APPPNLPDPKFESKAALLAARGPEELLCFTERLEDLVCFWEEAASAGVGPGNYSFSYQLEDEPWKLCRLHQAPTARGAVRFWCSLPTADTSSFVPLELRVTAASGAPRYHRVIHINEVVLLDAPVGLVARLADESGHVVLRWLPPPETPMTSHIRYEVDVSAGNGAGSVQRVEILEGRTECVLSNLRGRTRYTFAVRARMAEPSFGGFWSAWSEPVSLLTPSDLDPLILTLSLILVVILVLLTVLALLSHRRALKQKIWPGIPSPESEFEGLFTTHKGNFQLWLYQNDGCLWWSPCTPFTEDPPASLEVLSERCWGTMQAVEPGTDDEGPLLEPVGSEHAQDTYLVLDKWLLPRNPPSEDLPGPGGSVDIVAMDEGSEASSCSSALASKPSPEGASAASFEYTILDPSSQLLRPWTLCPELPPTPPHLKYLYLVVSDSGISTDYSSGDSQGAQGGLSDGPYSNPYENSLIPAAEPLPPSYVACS

## recombinant human TPO (from UniProt P40225 22-195) (ligand)
[1]
  relative CREB phosphorylation level (pCREB ELISA, HEL cells, 100 ng/mL rhTPO): 143%

## AETAGPTWCEDDWYYCWLFGTAAPAAPAPAAPAAPAPVCWEDSWGGEVCWLFGT (disulfide 9-16, 39-49) [AET-VEGFR_D2-PAS16]
[2]
  IC50: 0.26 nM
[2]; Example 29, purified by HPLC, 10 ng/mL VEGF, 4 hours, FIG. 47
  VEGF inhibitory activity (relative VEGF activity): higher inhibitory activity than the monomer peptides P3 and Pm4

## AETAGPTWCEDDWYYCWLFGTAAPAAPAPAAPAAPAPAAPAAPAPAAPAAPAPAAPAAPAPAAPAAPAPAVCWEDSWGGEVCWLFGT (disulfide 9-16, 72-82) [AET-VEGFR_D2-PAS49]
[2]
  IC50: 1.43 nM

B1: AET-VEGFR_D2-PAS100 (peptide)
peptide: AETAGPTWCEDDWYYCWLFGTAAPAAPAPAAPAAPAPAAPAAPAPAAPAAPAPAAPAAPAPAAPAAPAPAAPAAPAPAAPAAPAPAAPAAPAPAAPAAPAPAAPAAPAPAAPAAPAPAAPAVCWEDSWGGEVCWLFGT
modifications: two disulfide bonds in the molecule
[3]
  IC50: 86 ng/mL
[2]; Example 46, culture supernatant, 10 ng/mL VEGF, 4 hours, Table 8
  IC50: 86 ng/mL

B2: AET-EPO-GS22 (peptide)
peptide: AETGGLYACHMGPMTWVCQPLRGGGGGSGGGGSGGGGSGGGGSGGGGLYACHMGPMTWVCQPLRG
modifications: disulfide 9-18, 51-60
[4]
  EC50: 1.3 ng/mL

## GGCADGPTLREWISFCGGAAPAAPAPGGCADGPTLREWISFCGG (disulfide 3-16, 29-42) [TPO2-PAS8]
[1]
  relative CREB phosphorylation level (pCREB ELISA, HEL cells): 136%

B3: MAETAGPTWCEDDWYYCWLFGTSAPSPSSAPASASAPASPASASASASPASSPASASSASPAASSASPASSVCWEDSWGGEVCWLFGT (peptide)
chain: MAETAGPTWCEDDWYYCWLFGTSAPSPSSAPASASAPASPASASASASPASSPASASSASPAASSASPASSVCWEDSWGGEVCWLFGT
modifications: MAET-VEGFR_D2-PAS49-b; DISULFID (10)..(17) Disulfid bridge between Cys-10 and Cys-17; DISULFID (73)..(83) Disulfid bridge between Cys-73 and Cys-83
[2]; Example 39, cell-free expression solution, 10 ng/mL VEGF, FIGS. 71 and 72
  VEGF inhibitory activity (relative VEGF activity): higher inhibitory activity than MAET-VEGFR_D2-PAS100-b

B4: AET-EPO-PAS49 (peptide)
peptide: AETGGLYACHMGPMTWVCQPLRGAAPAAPAPAAPAAPAPAAPAAPAPAAPAAPAPAAPAAPAPAAPAAPAPAGGLYACHMGPMTWVCQPLRG
modifications: two disulfide bonds in the molecule
[4]
  EC50: 4.3 ng/mL

B5: AET-VEGFR_D2-PAS16 (peptide)
peptide: AETAGPTWCEDDWYYCWLFGTAAPAAPAPAAPAAPAPVCWEDSWGGEVCWLFGT
modifications: disulfide 9-16, 39-49
[3]
  IC50: 1.5 ng/mL

B6: AET-EPO-PAS100 (peptide)
peptide: AETGGLYACHMGPMTWVCQPLRGAAPAAPAPAAPAAPAPAAPAAPAPAAPAAPAPAAPAAPAPAAPAAPAPAAPAAPAPAAPAAPAPAAPAAPAPAAPAAPAPAAPAAPAPAAPAAPAPAAPAGGLYACHMGPMTWVCQPLRG
modifications: two disulfide bonds in the molecule
[4]
  EC50: 6.6 ng/mL

## GGCADGPTLREWISFCGGGGGGSGGGGGCADGPTLREWISFCGG (disulfide 3-16, 29-42) [TPO2-GS8]
[1]
  relative CREB phosphorylation level (pCREB ELISA, HEL cells): 121%

B7: TPO2-PAS100 (peptide)
peptide: GGCADGPTLREWISFCGGAAPAAPAPAAPAAPAPAAPAAPAPAAPAAPAPAAPAAPAPAAPAAPAPAAPAAPAPAAPAAPAPAAPAAPAPAAPAAPAPAAPAAPAPAAPAAPAPAAPAGGCADGPTLREWISFCGG
modifications: two disulfide bonds in the molecule
[1]
  relative CREB phosphorylation level (pCREB ELISA, HEL cells): 112%

B8: AET-EPO-GS8 (peptide)
peptide: AETGGLYACHMGPMTWVCQPLRGGGGGSGGGGGLYACHMGPMTWVCQPLRG
modifications: disulfide 9-18, 37-46
[4]
  EC50: 0.53 ng/mL

B9: TPO2-PAS49 (peptide)
peptide: GGCADGPTLREWISFCGGAAPAAPAPAAPAAPAPAAPAAPAPAAPAAPAPAAPAAPAPAAPAAPAPAGGCADGPTLREWISFCGG
modifications: two disulfide bonds in the molecule
[1]
  relative CREB phosphorylation level (pCREB ELISA, HEL cells): 131%

B10: AET-VEGFR_D2-PAS49 (peptide)
peptide: AETAGPTWCEDDWYYCWLFGTAAPAAPAPAAPAAPAPAAPAAPAPAAPAAPAPAAPAAPAPAAPAAPAPAVCWEDSWGGEVCWLFGT
modifications: two disulfide bonds in the molecule
[3]
  IC50: 12 ng/mL

B11: AET-VEGFR_D2-GS16 (peptide)
peptide: AETAGPTWCEDDWYYCWLFGTGGGGSGGGGSGGGGSGVCWEDSWGGEVCWLFGT
modifications: disulfide 9-16, 39-49
[3]
  IC50: 16 ng/mL
